Target: T1, BMC03 (uncultured bacterium (metagenome))
T1 chain: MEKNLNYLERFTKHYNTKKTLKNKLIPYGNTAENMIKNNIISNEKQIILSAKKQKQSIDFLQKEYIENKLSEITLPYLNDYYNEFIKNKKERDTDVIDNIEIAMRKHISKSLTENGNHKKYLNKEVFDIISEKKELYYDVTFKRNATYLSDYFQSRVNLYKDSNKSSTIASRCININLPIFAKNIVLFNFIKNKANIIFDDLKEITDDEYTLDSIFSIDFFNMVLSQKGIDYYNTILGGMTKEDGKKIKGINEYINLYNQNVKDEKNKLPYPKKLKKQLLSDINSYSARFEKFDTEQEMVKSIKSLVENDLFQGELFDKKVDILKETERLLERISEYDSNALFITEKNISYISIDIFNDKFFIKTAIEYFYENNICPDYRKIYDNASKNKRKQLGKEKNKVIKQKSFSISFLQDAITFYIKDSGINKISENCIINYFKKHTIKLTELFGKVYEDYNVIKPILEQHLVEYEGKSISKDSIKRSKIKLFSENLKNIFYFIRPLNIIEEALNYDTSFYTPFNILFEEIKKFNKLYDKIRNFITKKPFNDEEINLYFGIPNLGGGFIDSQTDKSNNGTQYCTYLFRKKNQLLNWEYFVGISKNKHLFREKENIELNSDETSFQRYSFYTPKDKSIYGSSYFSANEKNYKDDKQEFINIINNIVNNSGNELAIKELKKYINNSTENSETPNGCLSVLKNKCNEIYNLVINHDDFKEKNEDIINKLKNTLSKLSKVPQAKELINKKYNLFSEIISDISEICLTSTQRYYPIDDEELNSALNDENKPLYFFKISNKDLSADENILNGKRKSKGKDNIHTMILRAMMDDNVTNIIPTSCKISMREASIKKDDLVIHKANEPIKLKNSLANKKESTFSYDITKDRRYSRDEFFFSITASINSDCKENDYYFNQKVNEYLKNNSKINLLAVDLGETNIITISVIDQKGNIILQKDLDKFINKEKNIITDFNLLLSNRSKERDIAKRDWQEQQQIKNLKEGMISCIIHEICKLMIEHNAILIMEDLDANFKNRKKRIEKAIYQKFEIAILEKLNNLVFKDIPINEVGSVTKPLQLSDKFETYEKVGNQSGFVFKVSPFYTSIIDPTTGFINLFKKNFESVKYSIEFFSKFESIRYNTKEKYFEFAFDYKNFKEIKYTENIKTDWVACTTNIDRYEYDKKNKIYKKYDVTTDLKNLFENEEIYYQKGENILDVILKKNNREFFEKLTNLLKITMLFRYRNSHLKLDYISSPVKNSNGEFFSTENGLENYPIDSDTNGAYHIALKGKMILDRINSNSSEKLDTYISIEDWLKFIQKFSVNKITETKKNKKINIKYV
Experiment: cell_activity; PAM not stated; E. coli depletion, 30 C
Method in brief: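 E. coli carrying arabinose-induced (0.2%) BMC nuclease, grown at 30° C., made electrocompetent and electroporated with 50-100 ng plasmid carrying gRNA against malQ. Transformants plated on selective M9-glucose agar with kanamycin/ampicillin (± nourseothricin), and growth scored after 48 h at 30° C.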

B1: malQ gRNA (BMC stem-loop + 24 nt spacer) ; malQ protospacer (ssRNA ; dsDNA)
RNA: GAUUUCUACUAUUGUAGAUGUGGCGGUACGUUGAUGCAUCGCG
DNA 1: GTGGCGGTACGTTGATGCATCGCG
DNA 2: CGCGATGCATCAACGTACCGCCAC
- activity: > 99.9 % colony reduction
